B1: LOC100129726 (parent)
chain: AKAADSPTRNDLESGLGHFSLRVH
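Also: lentivirally expressed fusions sorted by FACS into six bins by GFP to DsRed ratio, PSI derived from sequencing read proportions per bin multiplied by bin number.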

Variants of B1 are the subject of this data set. In words: protein stability index of a GFP-peptide fusion (GPS, HEK-293T) (PSI 1-6); higher = more stable. Particulars: c terminus: a fixed tail appended.
For the variant AKAADSPTRNDLESGLGLFSLRVH [H18L], the protein stability index was found to be 2.38. For AKAADSPTRNDIESGLGHFSLRVH [L12I], the protein stability index came out at 3. As to AKAADSPTRNDVESGLGHFSLRVH [L12V], the protein stability index worked out at 3.62. In the case of AKAADSPTRNDEESGLGHFSLRVH [L12E], the protein stability index came to 4. As for AKAADSPTRNDWESGLGHFSLRVH [L12W], the protein stability index stood at 2.6. As to AKAADSPTRNDGESGLGHFSLRVH [L12G], the protein stability index turned out to be 3.52. On to AKAADSPTRNDTESGLGHFSLRVH [L12T], for which the protein stability index is 2.91. As for AKAADSPTRNDRESGLGHFSLRVH [L12R], the figure is 3.76.

Turning to AKAADSPTRNDSESGLGHFSLRVH [L12S], the protein stability index is 4.46.

In the case of AKAADSPTRNDDESGLGHFSLRVH [L12D], the protein stability index amounted to 3.9. For AKAADSPTRNDFESGLGHFSLRVH [L12F], the protein stability index was 3.06.

Consider AKAADSPTRNDKESGLGHFSLRVH [L12K], for which the protein stability index was found to be 3.92. As to AKAADSPTRNDMESGLGHFSLRVH [L12M], the protein stability index stood at 3.78. For the variant AKAADSPTRNDHESGLGHFSLRVH [L12H], the protein stability index amounted to 3.57.

As to AKAADSPTRNDPESGLGHFSLRVH [L12P], the protein stability index was 3.51. On to AKAADSPTRNDYESGLGHFSLRVH [L12Y], for which the protein stability index was determined as 1.93. As to AKAADSPTRNDQESGLGHFSLRVH [L12Q], the protein stability index is 4.45. For AKAADSPTRNDCESGLGHFSLRVH [L12C], the protein stability index was found to be 2.82.

On to AKAADSPTRNDNESGLGHFSLRVH [L12N], for which the protein stability index was 4.16. As for AKAADSPTRNDAESGLGHFSLRVH [L12A], the figure is 3.47; as for AKAADSPTRNDLESELGHFSLRVH [G15E], 2.82. Take AKAADSPTRNDLESNLGHFSLRVH [G15N]: the protein stability index was determined as 2.82.

Regarding AKAADSPTRNDLESKLGHFSLRVH [G15K], the protein stability index amounted to 2.93. Take AKAADSPTRNDLESWLGHFSLRVH [G15W]: the protein stability index is 1.57. As for AKAADSPTRNDLESPLGHFSLRVH [G15P], the figure is 2.79; as for AKAADSPTRNDLESMLGHFSLRVH [G15M], 2.23; as for AKAADSPTRNDLESSLGHFSLRVH [G15S], 2.86. In the case of AKAADSPTRNDLESCLGHFSLRVH [G15C], the protein stability index was found to be 2.18. As for AKAADSPTRNDLESHLGHFSLRVH [G15H], the protein stability index came to 3.26. As to AKAADSPTRNDLESILGHFSLRVH [G15I], the protein stability index came out at 1.86. Turning to AKAADSPTRNDLESTLGHFSLRVH [G15T], the protein stability index was 2.67. For the variant AKAADSPTRNDLESDLGHFSLRVH [G15D], the protein stability index was determined as 3.51. As for AKAADSPTRNDLESFLGHFSLRVH [G15F], the figure is 1.74; as for AKAADSPTRNDLESALGHFSLRVH [G15A], 2.4. Consider AKAADSPTRNDLESYLGHFSLRVH [G15Y], for which the protein stability index was found to be 2.4. For the variant AKAADSPTRNDLESLLGHFSLRVH [G15L], the protein stability index was 2.37.

AKAADSPTRNDLESQLGHFSLRVH [G15Q]: the protein stability index was found to be 3.81. For AKAADSPTRNDLESVLGHFSLRVH [G15V], the protein stability index was 2.48. AKAADSPTRNDLESRLGHFSLRVH [G15R]: the protein stability index was 2.06. Consider AKAADSPTGNDLESGLGHFSLRVH [R9G], for which the protein stability index worked out at 3.84. For the variant AKAADSPTYNDLESGLGHFSLRVH [R9Y], the protein stability index is 2.7. For AKAADSPTNNDLESGLGHFSLRVH [R9N], the protein stability index was found to be 3.51. In the case of AKAADSPTLNDLESGLGHFSLRVH [R9L], the protein stability index stood at 2.73.

With AKAADSPTKNDLESGLGHFSLRVH [R9K], the protein stability index was 4.17. For AKAADSPTENDLESGLGHFSLRVH [R9E], the protein stability index was 3.95. Consider AKAADSPTANDLESGLGHFSLRVH [R9A], for which the protein stability index is 3.47. With AKAADSPTVNDLESGLGHFSLRVH [R9V], the protein stability index turned out to be 2.71.

Take AKAADSPTINDLESGLGHFSLRVH [R9I]: the protein stability index was determined as 2.37. Regarding AKAADSPTFNDLESGLGHFSLRVH [R9F], the protein stability index was determined as 2.4. As for AKAADSPTWNDLESGLGHFSLRVH [R9W], the figure is 1.86; as for AKAADSPTHNDLESGLGHFSLRVH [R9H], 3.56; as for AKAADSPTMNDLESGLGHFSLRVH [R9M], 3.46.

For AKAADSPTQNDLESGLGHFSLRVH [R9Q], the protein stability index was 3.22.

For the variant AKAADSPTCNDLESGLGHFSLRVH [R9C], the protein stability index amounted to 3.04. As for AKAADSPTTNDLESGLGHFSLRVH [R9T], the protein stability index is 3.09. For AKAADSPTSNDLESGLGHFSLRVH [R9S] the value was 3.25; for AKAADSPTPNDLESGLGHFSLRVH [R9P], 3.07; for AKAADSPTDNDLESGLGHFSLRVH [R9D], 3.64. Take AKAADSPTRNDLASGLGHFSLRVH [E13A]: the protein stability index turned out to be 2.26.

For AKAADSPTRNDLNSGLGHFSLRVH [E13N], the protein stability index is 2.63.

With AKAADSPTRNDLYSGLGHFSLRVH [E13Y], the protein stability index was 1.38. For the variant AKAADSPTRNDLWSGLGHFSLRVH [E13W], the protein stability index was determined as 1.85. Take AKAADSPTRNDLFSGLGHFSLRVH [E13F]: the protein stability index was 2.19. For AKAADSPTRNDLKSGLGHFSLRVH [E13K] the value was 2.08. As to AKAADSPTRNDLPSGLGHFSLRVH [E13P], the protein stability index turned out to be 2.57.

Consider AKAADSPTRNDLGSGLGHFSLRVH [E13G], for which the protein stability index was 2.02. Take AKAADSPTRNDLVSGLGHFSLRVH [E13V]: the protein stability index came to 2.52. For AKAADSPTRNDLRSGLGHFSLRVH [E13R] the value was 2.38; for AKAADSPTRNDLTSGLGHFSLRVH [E13T], 2.59; for AKAADSPTRNDLQSGLGHFSLRVH [E13Q], 2.3.

On to AKAADSPTRNDLSSGLGHFSLRVH [E13S], for which the protein stability index amounted to 2.8.

Take AKAADSPTRNDLISGLGHFSLRVH [E13I]: the protein stability index was 2.32.

Turning to AKAADSPTRNDLCSGLGHFSLRVH [E13C], the protein stability index came out at 2.31. For AKAADSPTRNDLDSGLGHFSLRVH [E13D] the value was 2.95; for AKAADSPTRNDLMSGLGHFSLRVH [E13M], 2.15.

For AKAADSPTRNDLHSGLGHFSLRVH [E13H], the protein stability index turned out to be 2.74. Consider AKAADSPTRGDLESGLGHFSLRVH [N10G], for which the protein stability index stood at 2.77. For the variant AKAADSPTRDDLESGLGHFSLRVH [N10D], the protein stability index stood at 3.61. As for AKAADSPTRWDLESGLGHFSLRVH [N10W], the figure is 1.88; as for AKAADSPTRCDLESGLGHFSLRVH [N10C], 2.13. AKAADSPTRLDLESGLGHFSLRVH [N10L]: the protein stability index came out at 2.88.

Regarding AKAADSPTRKDLESGLGHFSLRVH [N10K], the protein stability index is 2.98.

Consider AKAADSPTRMDLESGLGHFSLRVH [N10M], for which the protein stability index came out at 2.51. As for AKAADSPTRYDLESGLGHFSLRVH [N10Y], the protein stability index stood at 1.97. Consider AKAADSPTRFDLESGLGHFSLRVH [N10F], for which the protein stability index is 2.38. AKAADSPTRTDLESGLGHFSLRVH [N10T]: the protein stability index came to 2.79. For AKAADSPTRPDLESGLGHFSLRVH [N10P], the protein stability index stood at 4. For AKAADSPTRQDLESGLGHFSLRVH [N10Q] the value was 3.87; for AKAADSPTRADLESGLGHFSLRVH [N10A], 3.06; for AKAADSPTRRDLESGLGHFSLRVH [N10R], 3.17. Regarding AKAADSPTRSDLESGLGHFSLRVH [N10S], the protein stability index was determined as 3.17. For the variant AKAADSPTRIDLESGLGHFSLRVH [N10I], the protein stability index stood at 1.78. Consider AKAADSPTRVDLESGLGHFSLRVH [N10V], for which the protein stability index was found to be 2.56. With AKAADSPTRHDLESGLGHFSLRVH [N10H], the protein stability index was 3.53.

Values taken from the supplement of paper PMC10567573.
